Reference: paper PMC5680108 (Cellular microbiology, 2017)
Where two headings read alike, the source gives them in different places.

Experiments:
Test in all cases: ELISA
[1] = target: complement component C4b, human (human) (UniProt P0C0L4)
[2] = target: T1, complement component C4b, human (human, UniProt P0C0L4 20-675; P0C0L4 757-1446; P0C0L4 1454-1744)
[3] = target: T1, complement component C4b, human; remark: listed apart in the source

T1 sequence (P0C0L4 20-675, chain 1 of 3): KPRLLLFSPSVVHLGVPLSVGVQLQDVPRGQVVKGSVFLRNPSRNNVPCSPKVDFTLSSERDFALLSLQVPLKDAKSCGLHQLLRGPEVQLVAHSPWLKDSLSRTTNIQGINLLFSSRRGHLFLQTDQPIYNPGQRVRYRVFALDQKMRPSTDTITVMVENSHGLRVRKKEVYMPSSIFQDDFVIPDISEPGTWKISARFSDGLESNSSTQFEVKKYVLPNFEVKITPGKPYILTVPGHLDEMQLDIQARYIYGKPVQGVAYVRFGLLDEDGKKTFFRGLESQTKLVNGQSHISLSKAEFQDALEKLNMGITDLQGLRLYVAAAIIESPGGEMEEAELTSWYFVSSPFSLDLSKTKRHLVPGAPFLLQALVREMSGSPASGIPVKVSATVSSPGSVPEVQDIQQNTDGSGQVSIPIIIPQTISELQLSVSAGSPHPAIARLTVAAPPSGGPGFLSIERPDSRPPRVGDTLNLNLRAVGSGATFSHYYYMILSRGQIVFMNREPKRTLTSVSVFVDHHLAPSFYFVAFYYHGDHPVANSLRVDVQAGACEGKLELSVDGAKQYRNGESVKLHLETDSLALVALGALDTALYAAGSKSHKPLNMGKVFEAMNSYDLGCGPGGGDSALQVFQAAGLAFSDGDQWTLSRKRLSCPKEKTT
T1 sequence (P0C0L4 757-1446, chain 2 of 3): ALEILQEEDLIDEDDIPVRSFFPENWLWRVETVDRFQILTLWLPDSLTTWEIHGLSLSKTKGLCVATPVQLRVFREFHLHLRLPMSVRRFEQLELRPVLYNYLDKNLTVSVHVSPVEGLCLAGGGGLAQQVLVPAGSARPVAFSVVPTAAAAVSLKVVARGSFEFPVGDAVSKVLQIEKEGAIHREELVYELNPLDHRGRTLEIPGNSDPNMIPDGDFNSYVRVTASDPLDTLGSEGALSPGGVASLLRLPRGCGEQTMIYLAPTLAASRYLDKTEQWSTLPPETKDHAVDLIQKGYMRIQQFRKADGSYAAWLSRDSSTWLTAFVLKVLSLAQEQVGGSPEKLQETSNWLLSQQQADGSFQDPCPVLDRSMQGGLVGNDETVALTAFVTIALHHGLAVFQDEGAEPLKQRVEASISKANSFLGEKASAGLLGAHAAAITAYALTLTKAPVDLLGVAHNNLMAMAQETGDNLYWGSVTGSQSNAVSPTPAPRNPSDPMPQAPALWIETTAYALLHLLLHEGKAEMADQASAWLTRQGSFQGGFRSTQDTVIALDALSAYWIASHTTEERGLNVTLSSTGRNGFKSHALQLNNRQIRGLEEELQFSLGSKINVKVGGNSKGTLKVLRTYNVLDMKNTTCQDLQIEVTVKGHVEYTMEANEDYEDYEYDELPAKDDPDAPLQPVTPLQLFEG
T1 sequence (P0C0L4 1454-1744, chain 3 of 3): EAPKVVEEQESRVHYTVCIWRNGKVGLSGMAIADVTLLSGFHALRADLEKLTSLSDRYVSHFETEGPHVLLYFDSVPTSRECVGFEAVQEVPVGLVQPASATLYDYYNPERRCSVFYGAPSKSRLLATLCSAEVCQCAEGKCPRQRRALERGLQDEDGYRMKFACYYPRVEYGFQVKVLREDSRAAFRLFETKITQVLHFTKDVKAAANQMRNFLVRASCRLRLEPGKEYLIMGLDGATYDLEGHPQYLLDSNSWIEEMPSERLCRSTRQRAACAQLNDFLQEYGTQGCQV
Sequence of complement component C4b, human (human) (P0C0L4 20-675, chain 1 of 3): as the sequence (P0C0L4 20-675, chain 1 of 3) above
Sequence of complement component C4b, human (human) (P0C0L4 757-1446, chain 2 of 3): as the sequence (P0C0L4 757-1446, chain 2 of 3) above
Sequence of complement component C4b, human (human) (P0C0L4 1454-1744, chain 3 of 3): as the sequence (P0C0L4 1454-1744, chain 3 of 3) above

Row | Molecule | Kd [1] | Kd [2] | Kd [3]
1 | GST-tagged OspC from B. burgdorferi strain N40 clone D10/E9 (natural protein) | 233 nM |  | 
2 | GST-OspCB31, GST fused to OspC from B. burgdorferi strain B31-A3 (natural protein) CNNSGKDGNTSANSADESVKGPNLTEISKKITDSNAVLLAVKEVEALLSSIDEIAAKAIGKKIHQNNGLDTENNHNGSLLAGAYAISTLIKQKLDGLKNEGLKEKIDAAKKCSETFTNKLKEKHTDLGKEGVTDADAKEAILKTNGTKTKGAEELGKLFESVEVLSKAAKEMLANSVKELTSPVVAESPKKP |  | ~414 nM | 476 nM
